Assay results: IntAct's records for PubMed 31515488

B1: Four and a half LIM domains protein 5 (Homo sapiens), Q5TD97 (parent)
chain: MTTAHFYCQYCTASLLGKKYVLKDDSPYCVTCYDRVFSNYCEECKKPIESDSKDLCYKDRHWHEGCFKCTKCNHSLVEKPFAAKDERLLCTECYSNECSSKCFHCKRTIMPGSRKMEFKGNYWHETCFVCENCRQPIGTKPLISKESGNYCVPCFEKEFAHYCNFCKKVITSGGITFCDQLWHKECFLCSGCRKDLCEEQFMSRDDYPFCVDCYNHLYANKCVACSKPISGLTGAKFICFQDSQWHSECFNCGKCSVSLVGKGFLTQNKEIFCQKCGSGMDTDI
partner: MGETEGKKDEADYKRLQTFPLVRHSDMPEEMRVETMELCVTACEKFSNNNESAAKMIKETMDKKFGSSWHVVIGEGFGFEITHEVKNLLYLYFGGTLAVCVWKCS
B2: Inactive peptidyl-prolyl cis-trans isomerase FKBP6 (Homo sapiens), O75344 (parent)
chain: MGGSALNQGVLEGDDAPGQSLYERLSQRMLDISGDRGVLKDVIREGAGDLVAPDASVLVKYSGYLEHMDRPFDSNYFRKTPRLMKLGEDITLWGMELGLLSMRRGELARFLFKPNYAYGTLGCPPLIPPNTTVLFEIELLDFLDCAESDKFCALSAEQQDQFPLQKVLKVAATEREFGNYLFRQNRFYDAKVRYKRALLLLRRRSAPPEEQHLVEAAKLPVLLNLSFTYLKLDRPTIALCYGEQALIIDQKNAKALFRCGQACLLLTEYQKARDFLVRAQKEQPFNHDINNELKKLASCYRDYVDKEKEMWHRMFAPCGDGSTAGES
partner: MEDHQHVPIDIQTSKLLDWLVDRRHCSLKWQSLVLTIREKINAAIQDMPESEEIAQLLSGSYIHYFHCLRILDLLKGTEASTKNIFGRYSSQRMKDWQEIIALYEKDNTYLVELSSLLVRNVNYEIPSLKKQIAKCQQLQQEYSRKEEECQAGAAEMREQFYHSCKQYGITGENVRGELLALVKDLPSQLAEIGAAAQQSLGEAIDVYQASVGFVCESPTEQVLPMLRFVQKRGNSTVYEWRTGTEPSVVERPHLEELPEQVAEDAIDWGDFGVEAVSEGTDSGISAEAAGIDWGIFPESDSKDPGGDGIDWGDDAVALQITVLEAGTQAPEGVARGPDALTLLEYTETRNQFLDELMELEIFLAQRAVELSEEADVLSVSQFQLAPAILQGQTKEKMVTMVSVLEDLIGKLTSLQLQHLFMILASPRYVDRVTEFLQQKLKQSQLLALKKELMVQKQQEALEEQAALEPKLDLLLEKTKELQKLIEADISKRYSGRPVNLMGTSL
B3: Pyridine nucleotide-disulfide oxidoreductase domain-containing protein 1 (Homo sapiens), Q8WU10 (parent)
chain: MEAARPPPTAGKFVVVGGGIAGVTCAEQLATHFPSEDILLVTASPVIKAVTNFKQISKILEEFDVEEQSSTMLGKRFPNIKVIESGVKQLKSEEHCIVTEDGNQHVYKKLCLCAGAKPKLICEGNPYVLGIRDTDSAQEFQKQLTKAKRIMIIGNGGIALELVYEIEGCEVIWAIKDKAIGNTFFDAGAAEFLTSKLIAEKSEAKIAHKRTRYTTEGRKKEARSKSKADNVGSALGPDWHEGLNLKGTKEFSHKIHLETMCEVKKIYLQDEFRILKKKSFTFPRDHKSVTADTEMWPVYVELTNEKIYGCDFIVSATGVTPNVEPFLHGNSFDLGEDGGLKVDDHMHTSLPDIYAAGDICTTSWQLSPVWQQMRLWTQARQMGWYAAKCMAAASSGDSIDMDFSFELFAHVTKFFNYKVVLLGKYNAQGLGSDHELMLRCTKGREYIKVVMQNGRMMGAVLIGETDLEETFENLILNQMNLSSYGEDLLDPNIDIEDYFD
partner: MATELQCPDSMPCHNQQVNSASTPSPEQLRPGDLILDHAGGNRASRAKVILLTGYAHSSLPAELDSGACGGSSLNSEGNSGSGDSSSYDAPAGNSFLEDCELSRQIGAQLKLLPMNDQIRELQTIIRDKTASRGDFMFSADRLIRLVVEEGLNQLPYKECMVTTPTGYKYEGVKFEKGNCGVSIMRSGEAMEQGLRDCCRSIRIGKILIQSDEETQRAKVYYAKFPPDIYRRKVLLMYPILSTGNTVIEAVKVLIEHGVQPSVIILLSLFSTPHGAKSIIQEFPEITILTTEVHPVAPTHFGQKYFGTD
B4: Putative RNA-binding protein Luc7-like 2 (Homo sapiens), Q9Y383 (parent)
chain: MSAQAQMRAMLDQLMGTSRDGDTTRQRIKFSDDRVCKSHLLNCCPHDVLSGTRMDLGECLKVHDLALRADYEIASKEQDFFFELDAMDHLQSFIADCDRRTEVAKKRLAETQEEISAEVAAKAERVHELNEEIGKLLAKVEQLGAEGNVEESQKVMDEVEKARAKKREAEEVYRNSMPASSFQQQKLRVCEVCSAYLGLHDNDRRLADHFGGKLHLGFIEIREKLEELKRVVAEKQEKRNQERLKRREEREREEREKLRRSRSHSKNPKRSRSREHRRHRSRSMSRERKRRTRSKSREKRHRHRSRSSSRSRSRSHQRSRHSSRDRSRERSKRRSSKERFRDQDLASCDRDRSSRDRSPRDRDRKDKKRSYESANGRSEDRRSSEEREAGEI
partner: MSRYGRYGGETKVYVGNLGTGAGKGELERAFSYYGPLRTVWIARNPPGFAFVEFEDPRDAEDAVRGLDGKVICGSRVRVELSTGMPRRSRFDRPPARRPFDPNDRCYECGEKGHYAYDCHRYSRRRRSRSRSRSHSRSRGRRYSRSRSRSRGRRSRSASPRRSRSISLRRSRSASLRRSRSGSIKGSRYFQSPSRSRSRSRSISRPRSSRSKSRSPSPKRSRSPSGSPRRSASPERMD
B5: Probable RNA-binding protein 46 (Homo sapiens), Q8TBY0 (parent)
chain: MNEENIDGTNGCSKVRTGIQNEAALLALMEKTGYNMVQENGQRKFGGPPPGWEGPPPPRGCEVFVGKIPRDMYEDELVPVFERAGKIYEFRLMMEFSGENRGYAFVMYTTKEEAQLAIRILNNYEIRPGKFIGVCVSLDNCRLFIGAIPKEKKKEEILDEMKKVTEGVVDVIVYPSATDKTKNRGFAFVEYESHRAAAMARRKLIPGTFQLWGHTIQVDWADPEKEVDEETMQRVKVLYVRNLMISTTEETIKAEFNKFKPGAVERVKKLRDYAFVHFFNREDAVAAMSVMNGKCIDGASIEVTLAKPVNKENTWRQHLNGQISPNSENLIVFANKEESHPKTLGKLPTLPARLNGQHSPSPPEVERCTYPFYPGTKLTPISMYSLKSNHFNSAVMHLDYYCNKNNWAPPEYYLYSTTSQDGKVLLVYKIVIPAIANGSQSYFMPDKLCTTLEDAKELAAQFTLLHLDYNFHRSSINSLSPVSATLSSGTPSVLPYTSRPYSYPGYPLSPTISLANGSHVGQRLCISNQASFF
B6: Geminin (Homo sapiens), O75496 (parent)
chain: MNPSMKQKQEEIKENIKNSSVPRRTLKMIQPSASGSLVGRENELSAGLSKRKHRNDHLTSTTSSPGVIVPESSENKNLGGVTQESFDLMIKENPSSQYWKEVAEKRRKALYEALKENEKLHKEIEQKDNEIARLKKENKELAEVAEHVQYMAELIERLNGEPLDNFESLDNQEFDSEEETVEDSLVEDSEIGTCAEGTVSSSTDAKPCI
partner: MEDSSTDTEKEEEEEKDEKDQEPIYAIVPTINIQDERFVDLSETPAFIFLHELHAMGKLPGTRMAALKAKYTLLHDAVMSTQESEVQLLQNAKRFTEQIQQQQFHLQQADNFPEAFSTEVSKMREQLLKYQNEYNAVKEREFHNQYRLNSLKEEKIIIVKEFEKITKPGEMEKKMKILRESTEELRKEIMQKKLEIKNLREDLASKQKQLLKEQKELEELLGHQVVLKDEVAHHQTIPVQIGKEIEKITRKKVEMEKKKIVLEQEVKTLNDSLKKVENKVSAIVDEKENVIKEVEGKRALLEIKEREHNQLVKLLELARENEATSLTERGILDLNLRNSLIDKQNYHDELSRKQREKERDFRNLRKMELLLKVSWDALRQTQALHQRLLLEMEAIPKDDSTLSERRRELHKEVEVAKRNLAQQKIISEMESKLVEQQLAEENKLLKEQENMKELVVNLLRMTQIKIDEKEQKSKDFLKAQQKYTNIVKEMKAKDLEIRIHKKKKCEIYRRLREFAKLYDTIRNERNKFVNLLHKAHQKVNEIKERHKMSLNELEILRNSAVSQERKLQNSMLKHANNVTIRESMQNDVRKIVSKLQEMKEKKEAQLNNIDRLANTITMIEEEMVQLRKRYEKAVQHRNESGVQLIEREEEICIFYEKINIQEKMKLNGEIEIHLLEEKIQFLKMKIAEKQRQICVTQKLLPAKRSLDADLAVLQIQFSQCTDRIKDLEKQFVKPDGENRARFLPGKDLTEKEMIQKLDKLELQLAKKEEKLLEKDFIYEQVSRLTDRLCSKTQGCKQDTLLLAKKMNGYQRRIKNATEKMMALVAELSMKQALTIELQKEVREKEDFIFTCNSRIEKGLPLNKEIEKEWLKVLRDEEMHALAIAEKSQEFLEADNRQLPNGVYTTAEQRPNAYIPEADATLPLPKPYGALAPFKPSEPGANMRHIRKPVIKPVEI
B7: Zinc finger protein 473 (Homo sapiens), Q8WTR7 (parent)
chain: MAEEFVTLKDVGMDFTLGDWEQLGLEQGDTFWDTALDNCQDLFLLDPPRPNLTSHPDGSEDLEPLAGGSPEATSPDVTETKNSPLMEDFFEEGFSQEIIEMLSKDGFWNSNFGEACIEDTWLDSLLGDPESLLRSDIATNGESPTECKSHELKRGLSPVSTVSTGEDSMVHNVSEKTLTPAKSKEYRGEFFSYSDHSQQDSVQEGEKPYQCSECGKSFSGSYRLTQHWITHTREKPTVHQECEQGFDRNASLSVYPKTHTGYKFYVCNEYGTTFSQSTYLWHQKTHTGEKPCKSQDSDHPPSHDTQPGEHQKTHTDSKSYNCNECGKAFTRIFHLTRHQKIHTRKRYECSKCQATFNLRKHLIQHQKTHAAKTTSECQECGKIFRHSSLLIEHQALHAGEEPYKCNERGKSFRHNSTLKIHQRVHSGEKPYKCSECGKAFHRHTHLNEHRRIHTGYRPHKCQECVRSFSRPSHLMRHQAIHTAEKPYSCAECKETFSDNNRLVQHQKMHTVKTPYECQECGERFICGSTLKCHESVHAREKQGFFVSGKILDQNPEQKEKCFKCNKCEKTFSCSKYLTQHERIHTRGVKPFECDQCGKAFGQSTRLIHHQRIHSRVRLYKWGEQGKAISSASLIKLQSFHTKEHPFKCNECGKTFSHSAHLSKHQLIHAGENPFKCSKCDRVFTQRNYLVQHERTHARKKPLVCNECGKTFRQSSCLSKHQRIHSGEKPYVCDYCGKAFGLSAELVRHQRIHTGEKPYVCQECGKAFTQSSCLSIHRRVHTGEKPYRCGECGKAFAQKANLTQHQRIHTGEKPYSCNVCGKAFVLSAHLNQHLRVHTQETLYQCQRCQKAFRCHSSLSRHQRVHNKQQYCL
partner: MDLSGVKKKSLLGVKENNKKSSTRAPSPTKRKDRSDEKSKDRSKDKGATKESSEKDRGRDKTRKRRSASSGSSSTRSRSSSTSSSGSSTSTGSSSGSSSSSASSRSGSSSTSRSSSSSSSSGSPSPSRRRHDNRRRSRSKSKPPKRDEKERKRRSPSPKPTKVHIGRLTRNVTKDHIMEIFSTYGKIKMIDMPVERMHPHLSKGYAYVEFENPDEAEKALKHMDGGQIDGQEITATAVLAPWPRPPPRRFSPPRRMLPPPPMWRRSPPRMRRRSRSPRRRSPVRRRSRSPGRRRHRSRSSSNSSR

Variants of: B1
Conditions: with dnal4_human DNAL4, O96015

Variant	effect of a mutation on the interaction
M202L	with no effect

Variants of: B2
Conditions: with ck5p3_human CDK5RAP3, Q96JB5

Variant	effect of a mutation on the interaction
R175Q	with no effect
H287N	with no effect

Variants of: B3
Conditions: with upp_human UPRT

Variant	effect of a mutation on the interaction
R374K	with no effect

Variants of: B4
Conditions: with srsf7_human SRSF7, Q16629

Variant	effect of a mutation on the interaction
K368Q	with no effect

Variants of: B5
Conditions: with rbpms_human RBPMS

Variant	effect of a mutation on the interaction
I126M	with no effect

Variants of: B6
Conditions: with cc146_human CCDC146, Q8IYE0

Variant	effect of a mutation on the interaction
N15H	with no effect
E167D	with no effect

Variants of: B7
Conditions: with rnps1_human RNPS1, Q15287

Variant	effect of a mutation on the interaction
S662A	with no effect
S535N	with no effect
S59G	with no effect
R605Q	disrupting interaction strength
